Source: doi:10.1101/324400 (bioRxiv, 2018)

What was measured:
[1] = target: Eco RNAP β subunit (in the opsEC) (E. coli, UniProt P0A8V2); assay: cryo-EM structure
[2] = target: Eco RNAP β' subunit (in the opsEC) (E. coli, UniProt P0A8T7); assay: cryo-EM structure
Eco RNAP β' subunit (in the opsEC), sequence (P0A8T7 whole entry): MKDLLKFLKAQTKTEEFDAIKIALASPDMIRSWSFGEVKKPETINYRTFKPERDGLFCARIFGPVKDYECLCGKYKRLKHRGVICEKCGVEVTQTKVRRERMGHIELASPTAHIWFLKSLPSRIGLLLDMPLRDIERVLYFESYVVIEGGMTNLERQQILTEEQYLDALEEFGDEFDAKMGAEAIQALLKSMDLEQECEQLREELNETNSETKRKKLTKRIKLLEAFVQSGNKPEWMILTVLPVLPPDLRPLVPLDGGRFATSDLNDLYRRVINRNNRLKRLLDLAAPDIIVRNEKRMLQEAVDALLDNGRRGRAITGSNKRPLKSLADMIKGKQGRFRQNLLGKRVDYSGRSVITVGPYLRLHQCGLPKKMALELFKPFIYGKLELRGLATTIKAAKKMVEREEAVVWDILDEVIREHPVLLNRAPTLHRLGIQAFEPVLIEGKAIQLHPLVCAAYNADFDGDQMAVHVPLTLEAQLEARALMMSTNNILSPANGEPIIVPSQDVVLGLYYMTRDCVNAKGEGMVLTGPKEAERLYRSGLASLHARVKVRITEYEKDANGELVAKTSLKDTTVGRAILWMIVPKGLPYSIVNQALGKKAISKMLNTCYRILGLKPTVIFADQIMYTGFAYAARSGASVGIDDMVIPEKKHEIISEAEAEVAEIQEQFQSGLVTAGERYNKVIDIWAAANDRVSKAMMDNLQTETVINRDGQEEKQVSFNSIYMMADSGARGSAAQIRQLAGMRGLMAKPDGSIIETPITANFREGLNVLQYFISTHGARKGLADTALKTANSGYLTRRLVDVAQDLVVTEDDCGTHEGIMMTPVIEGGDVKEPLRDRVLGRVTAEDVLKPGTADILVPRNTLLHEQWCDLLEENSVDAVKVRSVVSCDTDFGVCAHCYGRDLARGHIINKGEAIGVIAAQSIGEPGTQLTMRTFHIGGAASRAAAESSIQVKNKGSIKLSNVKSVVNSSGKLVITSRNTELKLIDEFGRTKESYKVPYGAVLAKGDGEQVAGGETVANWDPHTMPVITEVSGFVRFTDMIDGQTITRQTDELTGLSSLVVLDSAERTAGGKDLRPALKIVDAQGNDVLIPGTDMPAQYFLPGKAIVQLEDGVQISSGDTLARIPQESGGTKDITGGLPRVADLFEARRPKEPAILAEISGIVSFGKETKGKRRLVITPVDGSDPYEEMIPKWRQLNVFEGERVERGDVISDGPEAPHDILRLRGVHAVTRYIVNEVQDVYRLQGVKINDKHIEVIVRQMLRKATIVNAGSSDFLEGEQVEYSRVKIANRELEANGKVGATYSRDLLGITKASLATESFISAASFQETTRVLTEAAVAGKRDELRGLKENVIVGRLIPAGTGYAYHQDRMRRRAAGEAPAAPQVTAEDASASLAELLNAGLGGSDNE

Eco RNAP β subunit (in the opsEC), sequence (P0A8V2 whole entry): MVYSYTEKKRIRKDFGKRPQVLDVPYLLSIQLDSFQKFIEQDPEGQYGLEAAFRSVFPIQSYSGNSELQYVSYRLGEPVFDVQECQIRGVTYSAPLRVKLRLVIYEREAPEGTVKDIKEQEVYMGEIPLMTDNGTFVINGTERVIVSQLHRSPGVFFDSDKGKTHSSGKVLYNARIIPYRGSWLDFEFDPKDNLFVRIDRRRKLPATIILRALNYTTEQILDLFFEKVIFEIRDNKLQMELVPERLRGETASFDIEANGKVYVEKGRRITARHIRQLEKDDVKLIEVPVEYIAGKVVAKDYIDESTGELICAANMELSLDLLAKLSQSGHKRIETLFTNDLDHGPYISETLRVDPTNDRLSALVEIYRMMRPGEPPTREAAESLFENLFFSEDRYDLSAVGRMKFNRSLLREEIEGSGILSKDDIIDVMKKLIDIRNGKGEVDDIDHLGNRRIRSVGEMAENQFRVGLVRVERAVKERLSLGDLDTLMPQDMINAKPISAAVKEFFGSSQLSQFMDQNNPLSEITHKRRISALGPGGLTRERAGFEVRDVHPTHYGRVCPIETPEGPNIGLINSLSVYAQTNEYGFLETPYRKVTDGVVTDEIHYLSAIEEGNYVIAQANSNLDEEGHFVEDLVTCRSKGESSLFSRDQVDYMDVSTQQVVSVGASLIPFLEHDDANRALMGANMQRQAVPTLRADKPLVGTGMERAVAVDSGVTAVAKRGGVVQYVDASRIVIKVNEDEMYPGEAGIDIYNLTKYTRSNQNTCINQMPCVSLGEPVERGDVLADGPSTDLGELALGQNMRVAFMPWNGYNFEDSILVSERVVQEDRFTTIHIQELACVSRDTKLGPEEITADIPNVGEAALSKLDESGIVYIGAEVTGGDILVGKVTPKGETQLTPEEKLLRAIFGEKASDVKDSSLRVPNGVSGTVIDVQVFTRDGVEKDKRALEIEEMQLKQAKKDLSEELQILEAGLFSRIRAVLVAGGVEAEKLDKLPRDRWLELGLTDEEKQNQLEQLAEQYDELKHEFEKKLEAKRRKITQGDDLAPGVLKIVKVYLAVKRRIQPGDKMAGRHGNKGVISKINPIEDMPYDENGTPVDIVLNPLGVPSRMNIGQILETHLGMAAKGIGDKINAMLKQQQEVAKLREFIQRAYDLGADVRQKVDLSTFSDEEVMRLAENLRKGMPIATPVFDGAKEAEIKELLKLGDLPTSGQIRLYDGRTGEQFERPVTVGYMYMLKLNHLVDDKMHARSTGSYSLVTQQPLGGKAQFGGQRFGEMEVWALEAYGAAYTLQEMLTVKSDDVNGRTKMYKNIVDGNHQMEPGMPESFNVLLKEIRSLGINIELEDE

B1: wild-type Eco RfaH, full length (natural protein)
chain: MQSWYLLYCKRGQLQRAQEHLERQAVNCLAPMITLEKIVRGKRTAVSEPLFPNYLFVEFDPEVIHTTTINATRGVSHFVRFGASPAIVPSAVIHQLSVYKPKDIVDPATPYPGDKVIITEGAFEGFQAIFTEPDGEARSMLLLNLINKEIKHSVKNTEFRKL
**Q.** What does the source list for B1?
**A.** binding result [1]: binds; binding result [2]: binds
